Reference: patent publication US20030059769, “High affinity nucleic acid ligands to lectins” (published 2003)

Assays:
L-selectin (LS-Rg) [1] = target: T1, L-selectin (LS-Rg) (Homo sapiens, UniProt P14151 P14151:39-332); assay: filter; affinity similar to full length LD227; conditions: tags: human IgG2 Fc fusion; chain copies: 2 (stated dimer)
T1 sequence: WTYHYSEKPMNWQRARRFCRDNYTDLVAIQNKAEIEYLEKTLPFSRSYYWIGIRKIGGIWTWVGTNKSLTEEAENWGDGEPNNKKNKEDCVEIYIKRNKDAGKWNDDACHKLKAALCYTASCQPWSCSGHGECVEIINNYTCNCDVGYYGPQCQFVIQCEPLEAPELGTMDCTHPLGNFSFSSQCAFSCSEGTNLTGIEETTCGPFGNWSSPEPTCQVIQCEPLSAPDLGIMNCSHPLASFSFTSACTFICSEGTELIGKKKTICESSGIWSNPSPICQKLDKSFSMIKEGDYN

L-selectin (LS-Rg) [2] = target: T1, L-selectin (LS-Rg); assay: filter; 37 C; lacks 7-nt bulge; conditions: tags: human IgG2 Fc fusion; chain copies: dimer; label: 32P; hairpin lacking bulge
Method: (§1) As described in SELEX Patent Applications, a nitrocellulose filter partitioning method was used to determine the affinity of RNA ligands for LS-Rg and for other proteins. Filter discs (nitrocellulose/cellulose acetate mixed matrix, 0.45 μm pore size, Millipore) were placed on a vacuum manifold and washed with 3 ml of SHMCK 140 buffer under vacuum. Reaction mixtures, containing ³²P labeled RNA pools and unlabeled LS-Rg, were incubated in SHMCK 140 for 10-20 min at 37° C., and then immediately washed with 3 ml SHMCK 140. The filters were air-dried and counted in a Beckman LS6500 liquid scintillation counter without fluor. Alternatively, binding studies employed 96 well micro-titer manifolds essentially as described in Example 13, paragraph E.
These calculations assume two ligand binding sites per chimera.

P-selectin (PS-Rg) [3] = target: T2, P-selectin (PS-Rg) (Homo sapiens, UniProt P16109 P16109:42-321); assay: filter; HSMC; SLeX IC50 2 nM; conditions: tags: human IgG1 Fc fusion; chain copies: dimer; hairpin
[4] = target: P-selectin on activated platelets (Homo sapiens, UniProt P16109 P16109:42-830); assay: flow; biotinylated, SA-PE; divalent cation dependent; blocked by G1 antibody; conditions: hairpin
Method: To detect oligonucleotide ligand binding, 15 μl BB+ containing ligand conjugated to either FITC or biotin was incubated 20-30 minutes at 4° C. with 10 μl platelet suspension. The FITC-figand incubations were diluted to 200 μl with BB+ and analyzed on a FACSCaliber flow cytometer. The biotinylated-ligand reactions were incubated with streptavidin-phycoehrin (SA-PE) (Becton Dickinson) for 20 minutes at 4° C., before dilution and analysis. Wash steps with 500 μl BB+ and 700 ×g spins have been used without compromising the quality of the results.
Since the P-selectin ligands were isolated against purified protein, their ability to bind P-selectin presented in the context of a cell surface was determined in flow cytometry experiments with activated human platelets. Platelets were gated by side scatter and CD61 expression. […] The expression of P-selectin was monitored with anti-CD62P monoclonal antibody (Becton Dickinson).

E-selectin (ES-Rg) [5] = target: T3, E-selectin (ES-Rg) (Homo sapiens, UniProt P16581 P16581:22-556); assay: filter; specificity control; conditions: tags: human IgG1 Fc fusion; chain copies: dimer (inferred); label: 32P
T3 sequence: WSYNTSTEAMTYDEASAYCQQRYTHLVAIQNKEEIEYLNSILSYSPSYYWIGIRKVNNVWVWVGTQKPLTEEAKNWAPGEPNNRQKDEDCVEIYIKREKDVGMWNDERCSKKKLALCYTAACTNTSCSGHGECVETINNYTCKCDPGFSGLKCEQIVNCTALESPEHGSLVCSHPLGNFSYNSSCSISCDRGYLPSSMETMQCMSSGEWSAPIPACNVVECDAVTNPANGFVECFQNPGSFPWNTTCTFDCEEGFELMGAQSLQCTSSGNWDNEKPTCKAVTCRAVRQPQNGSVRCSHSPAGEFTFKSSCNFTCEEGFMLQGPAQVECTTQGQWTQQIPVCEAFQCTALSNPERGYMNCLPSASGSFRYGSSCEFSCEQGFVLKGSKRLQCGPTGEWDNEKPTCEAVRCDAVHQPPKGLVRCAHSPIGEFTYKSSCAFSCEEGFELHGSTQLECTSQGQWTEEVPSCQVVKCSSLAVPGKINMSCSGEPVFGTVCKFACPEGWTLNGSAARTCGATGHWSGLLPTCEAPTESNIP
Method: The affinity of P-selectin ligands to ES-Rg, LS-Rg and CD22β-Rg were determined by nitrocellulose partitioning. […] In general, a ligand's affinity for ES-Rg and LS-Rg is at least 10⁴-fold lower than for PS-Rg. […] The specificity of oligonucleotide ligand binding contrasts sharply with the binding of cognate carbohydrates by the selectins and confirms the proposition that SELEX ligands will have greater specificity than carbohydrate ligands.

P-selectin (PS-Rg) [6] = target: T2, P-selectin (PS-Rg); assay: filter; 37 C, HSMC; conditions: tags: human IgG1 Fc fusion; chain copies: dimer; label: 32P
L-selectin (LS-Rg) [7] = target: T1, L-selectin (LS-Rg); assay: filter; room temperature; Table 13 prints 110 nM (probably pM), 380 pM at 37 C; conditions: tags: human IgG2 Fc fusion; chain copies: 2 (stated dimer)
Method: As described in SELEX Patent Applications and in Example 7, paragraph C, a nitrocellulose filter partitioning method was used to determine the affinity of ssDNA ligands for LS-Rg and for other proteins. For these experiments a Gibco BRL 96 well manifold was substituted for the 12 well Millipore manifold used in Example 7 and radioactivity was determined with a Fujix BAS100 phosphorimager. Bindin, data were analyzed as described in Example 7, paragraph C.

L-selectin (LS-Rg) [8] = target: T1, L-selectin (LS-Rg); assay: inhibition; sialyl-LewisX competition ELISA; conditions: tags: human IgG2 Fc fusion; chain copies: 2 (stated dimer)
Method: SLe^X-BSA (Oxford GlycoSystems, Oxford, UK) in 1X PBS, without CaCl₂, and MgCl₂, (GIBCO/BRL) was immobilized at 100 ng/well onto a microtiter plate by overnight incubation at […]. The wells were blocked for 1 h with the assay buffer consisting of 20 mM HEPES, 111 mM NaCl, 1 mM CaCl₂, 1 mM MgCl₂, 5 mM KCl, 8.9 mM NaOH, final pH 8, and 1% globulin-free BSA (Sigma). The reaction mixtures, incubated for 90 min with orbital shaking, contained 5 nM L-Selectin-Rg, a 1:100 dilution of anti-human IgG-peroxidase conjugate (Sigma), and 0 - 50 ruM of competitor in assay buffer. After incubation, the plate was washed with BSA-free assay buffer to remove unbound chimera-antibody complex and incubated for 25 min with O-phenylenediamine dihydrochloride peroxidase substrate (Sigma) by shaking in the dark at 22°0 C. Absorbance was read at 450 nm on a Bio-Kinetics Reader, Model EL312e (Bio-Tek Instruments, Laguna Hills, Calif.). Values shown represent the mean ±s.e from duplicate, or triplicate, samples from one representative experiment.
Sialyl Lewis^X is the minimal carbohydrate ligand bound by selecting.

[9] = target: T4, L-selectin on PBMC / lymphocytes (Homo sapiens, UniProt P14151 P14151:39-372); assay: flow; half-saturation on human lymphocytes; divalent cation dependent; conditions: label: 32P or 5'-fluorescein (cells); hairpin
T4 sequence: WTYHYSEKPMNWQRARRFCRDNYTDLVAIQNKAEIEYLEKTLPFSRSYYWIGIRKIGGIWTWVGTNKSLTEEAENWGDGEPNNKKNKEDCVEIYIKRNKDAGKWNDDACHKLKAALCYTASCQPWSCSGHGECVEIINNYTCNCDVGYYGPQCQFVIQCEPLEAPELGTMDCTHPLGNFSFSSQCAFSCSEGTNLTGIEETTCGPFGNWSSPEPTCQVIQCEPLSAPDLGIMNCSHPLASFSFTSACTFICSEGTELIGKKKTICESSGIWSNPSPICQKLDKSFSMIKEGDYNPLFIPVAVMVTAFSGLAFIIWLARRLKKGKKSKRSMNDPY
Excerpt: (§2) A variety of monomeric nucleic acid ligands and multivalent Complexes have been examined in flow cytometry.

[10] = target: T4, L-selectin on PBMC / lymphocytes; assay: flow; half-saturation; conditions: label: labeled streptavidin
Excerpt: as §2

L-selectin (LS-Rg) [11] = target: T1, L-selectin (LS-Rg); assay: filter; affinity similar to full length LD201; conditions: tags: human IgG2 Fc fusion; chain copies: 2 (stated dimer)
L-selectin (LS-Rg) [12] = target: T1, L-selectin (LS-Rg); assay: filter; affinity reduction versus full length LF1514; conditions: tags: human IgG2 Fc fusion; chain copies: 2 (stated dimer)
Method: as §1
(§3) Predictions of minimal high affinity sequences for family 1 ligands can be made and serve as a partial test of the postulated secondary structure.

soluble L-selectin = target: T5, soluble L-selectin (Homo sapiens, UniProt P14151 P14151:39-332); assay: filter; binding undetectable; Table 16 sequence differs from SEQ 358; conditions: tags: R&D Systems
T5 sequence: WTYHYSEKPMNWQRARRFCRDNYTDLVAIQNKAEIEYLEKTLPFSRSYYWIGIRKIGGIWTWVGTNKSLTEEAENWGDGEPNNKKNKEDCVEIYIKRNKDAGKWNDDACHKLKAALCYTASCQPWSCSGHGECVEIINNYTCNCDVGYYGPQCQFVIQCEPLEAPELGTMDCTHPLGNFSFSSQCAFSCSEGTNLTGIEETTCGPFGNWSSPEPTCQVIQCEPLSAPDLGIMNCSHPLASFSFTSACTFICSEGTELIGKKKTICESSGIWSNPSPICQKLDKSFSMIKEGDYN

L-selectin (LS-Rg) [13] = target: T1, L-selectin (LS-Rg); assay: filter; upper stem and loop only; conditions: tags: human IgG2 Fc fusion; chain copies: dimer; hairpin
Method: as §1, §3

L-selectin (LS-Rg) [14] = target: T1, L-selectin (LS-Rg); assay: filter; truncate at base of lower stem; conditions: tags: human IgG2 Fc fusion; chain copies: dimer; hairpin
P-selectin (PS-Rg) [15] = target: T2, P-selectin (PS-Rg); assay: filter; 37 C; 0.01 nM at 4 C; conditions: tags: human IgG1 Fc fusion; chain copies: dimer; label: 32P
E-selectin (ES-Rg) [16] = target: T3, E-selectin (ES-Rg); assay: filter; specificity control; conditions: tags: human IgG1 Fc fusion; chain copies: dimer (inferred); label: 32P; remark: listed apart in the source
P-selectin (PS-Rg) [17] = target: T2, P-selectin (PS-Rg); assay: inhibition; sialyl-LewisX; conditions: tags: human IgG Fc fusion; chain copies: 2 (stated dimer)
Method: The ability of evolved RNA pools or cloned ligands to inhibit the binding of PS-Rg to sialyl-Lewis^x was tested in competitive ELISA assays (C. Foxall et al., 1992, supra). For these assays, the wells of Corning (25801) 96 well microtiter plates were coated with 100 ng of a sialyl-Lewis^x/BSA conjugate, air dried overnight, washed with 300 μl of PBS(−) and then blocked with 1% BSA in HSMC for 60 min at room temperature. RNA ligands were incubated with PS-Rg in HSMC/1% BSA at room temperature for 15 min. After removal of the blocking solution, 50 μl of PS-Rg (10 nM) or a PS-Rg (10 nM)/RNA ligand mix was added to the coated, blocked wells and incubated at room temperature for 60 minutes. The binding solution was removed, wells were washed with 300 μl of PBS(−) and then probed with HRP conjugated anti-human IgG, at room temperature to quantitate PS-Rg binding. After a 30 minute incubation at room temperature in the dark with OPD peroxidase substrate (Sigma P9187), the extent of PS-Rg binding and percent inhibition was determined from the OD₄₅₀.

CD22beta (CD22b-Rg) = CD22beta (CD22b-Rg) (UniProt P20273 P20273:20-687); assay: filter; no binding above background; conditions: tags: human IgG1 Fc fusion; chain copies: 2 (inferred)

T2 sequence (P16109 42-321, one chain of several): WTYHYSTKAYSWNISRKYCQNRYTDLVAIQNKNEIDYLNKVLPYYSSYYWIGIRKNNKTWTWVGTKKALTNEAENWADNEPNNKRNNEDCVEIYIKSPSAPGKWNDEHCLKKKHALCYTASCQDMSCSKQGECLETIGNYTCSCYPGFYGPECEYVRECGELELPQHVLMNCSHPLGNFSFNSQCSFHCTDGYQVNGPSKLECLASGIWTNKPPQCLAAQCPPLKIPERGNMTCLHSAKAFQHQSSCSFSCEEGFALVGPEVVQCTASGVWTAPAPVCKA
Chain of P-selectin on activated platelets (P16109 42-830, one chain of several): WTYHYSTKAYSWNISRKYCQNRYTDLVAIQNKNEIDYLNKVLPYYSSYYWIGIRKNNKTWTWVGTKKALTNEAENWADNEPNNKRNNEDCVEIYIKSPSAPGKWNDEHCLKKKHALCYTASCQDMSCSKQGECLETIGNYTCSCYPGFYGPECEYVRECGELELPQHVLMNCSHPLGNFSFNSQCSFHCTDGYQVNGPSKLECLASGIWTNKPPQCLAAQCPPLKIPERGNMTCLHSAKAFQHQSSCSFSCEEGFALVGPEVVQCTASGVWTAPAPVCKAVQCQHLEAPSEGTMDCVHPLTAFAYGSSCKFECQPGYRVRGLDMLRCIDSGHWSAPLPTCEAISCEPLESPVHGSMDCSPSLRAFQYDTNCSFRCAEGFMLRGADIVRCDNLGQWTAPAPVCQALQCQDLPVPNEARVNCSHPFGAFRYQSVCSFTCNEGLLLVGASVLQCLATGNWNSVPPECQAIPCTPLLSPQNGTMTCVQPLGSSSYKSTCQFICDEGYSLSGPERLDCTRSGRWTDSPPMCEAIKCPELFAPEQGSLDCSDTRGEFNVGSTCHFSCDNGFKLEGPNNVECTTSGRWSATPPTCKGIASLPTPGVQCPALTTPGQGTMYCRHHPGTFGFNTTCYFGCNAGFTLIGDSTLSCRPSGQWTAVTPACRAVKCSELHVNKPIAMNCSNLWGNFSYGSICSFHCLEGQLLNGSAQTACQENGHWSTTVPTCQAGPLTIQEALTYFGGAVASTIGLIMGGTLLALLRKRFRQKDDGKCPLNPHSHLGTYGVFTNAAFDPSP

CGCGCGTTACAAGGTGCTAAACGTAACGTACTTGCTTACTCGCG (ssDNA) [LD227X1]
binding signal (L-selectin (LS-Rg) [1]): ~1 fold

B1: LF1512 (ssRNA)
RNA: GGGAGGACGAUGCGGCACACGUGUUUUCAAGUGUGCUCCUGGGAUCAGACGACUCGCCCGA
modifications: 2'-F on all C and U
Kd (L-selectin (LS-Rg) [2]): 315 nM

CUCAACGAGCCAGGAACAUCGACGUCAGCAAACGCGAG (ssRNA, 2'-F on all C and U) [PF377s1]
Kd (P-selectin (PS-Rg) [3]): 0.06 nM | EC50 [4]: ~0.05 nM

B2: PF377 (ssRNA)
RNA: GGGAGACAAGAAUAAACGCUCAACGAGCCAGGAACAUCGACGUCAGCAAACGCGAGCGCAACCAGUAACACCUUCGACAGGAGGCUCACAACAGGC
modifications: 2'-F on all C and U
Kd (E-selectin (ES-Rg) [5]): 2300 nM | Kd (P-selectin (PS-Rg) [6]): 0.0185 nM

B3: LD233 (ssDNA)
DNA: CTACCTACGATCTGACTAGCCACGACAGAGAACAAGGCGTTAGACGTTATCCGACCACGGCTTACTCTCATGTAGTTCC
Kd (L-selectin (LS-Rg) [7]): 0.12 nM

TAGCCAAGGTAACCAGTACAAGGTGCTAAACGTAATGGCTTCGGCTTAC (ssDNA) [LD201T1]
IC50 (L-selectin (LS-Rg) [8]): ~3 nM | Kd [9]: 3 nM

TAGCCAAGGTAACCAGTACAAGGTGCTAAACGTAATGGCTTCGGCTTAC (ssDNA, biotin, multivalent on streptavidin) [bio-LD201T1/streptavidin]
EC50 [10]: ~0.15 nM

CGCGGTAACCAGTACAAGGTGCTAAACGTAATGGCGCG (ssDNA) [LD201T10]
binding signal (L-selectin (LS-Rg) [11]): ~1 fold

CUCAAAUUGCGUGUUUUCAAGCA (ssRNA, 2'-F C and U) [LF1514T2]
binding signal (L-selectin (LS-Rg) [12]): ≥ 100 fold

B4: LF1535 (ssRNA)
RNA: GGGAGGACGAUGCGGCAAUGUGUUUCUCAAAUUGCUUUCUCCCUUCAGACGACUCGCCCGA
modifications: 2'-F C and U
binding result (soluble L-selectin): no binding

UGCGUGUUUUCAAGCA (ssRNA, 2'-F on all C and U) [LF1514T1]
binding signal (L-selectin (LS-Rg) [13]): ≥ 100 fold weaker than LF1514

GGUACCUCAAAUUGCGUGUUUUCAAGCAGUAUC (ssRNA, 2'-F on all C and U) [LF1514T4]
binding signal (L-selectin (LS-Rg) [14]): < 2 fold weaker than LF1514

B5: PA350 (ssRNA)
RNA: GGGAGACAAGAAUAAACGCUCAAGCCCCAAACGCAAGUGAGCAUCCGCAACAGGGAAGAAGACAGACGAUUGAUUCGACAGGAGGCUCACAACAGGC
modifications: 2'-NH2 on all C and U
Kd (P-selectin (PS-Rg) [15]): 0.06 nM | Kd (E-selectin (ES-Rg) [16]): 375 nM

B6: PA350 (ssRNA)
RNA: GGGAGACAAGAAUAAACGCUCAAGCCCCAAACGCAAGUGAGCAUCCGCAACAGGGAAGAAGACAGACGAUUGAUUCGACAGGAGGCUCACAACAGGC
modifications: 2'-NH2 C and U
IC50 (P-selectin (PS-Rg) [17]): 2 nM | binding result (CD22beta (CD22b-Rg)): no binding
